Measured values as given in patent US6312941.

Key:
[1] = molecular target: wild-type murine JAK2 (expressed in COS cells from pRK5) (murine)
[2] = molecular target: wild-type murine JAK2 (expressed in COS cells from pRK5) (murine); remark: listed apart in the source

| tyrosyl phosphorylation of JAK2 (αMyc immunoprecipitate, anti-phosphotyrosine blot) [1] [fold] | tyrosine phosphorylation of JAK2 (αJAK2 immunoprecipitate, anti-PY blot, densitometry normalised to JAK2) [2] [%] | Substance |
| --- | --- | --- |
| 3 |  | HA-tagged SH2-Bβc (expressed in COS cells) |
|  | 90 | Myc-tagged SH2-Bβn (truncated at amino acid 555, lacks the SH2 domain) |
